# Test results as given in IntAct's records for PubMed 18063693.
# B1: Estrogen-related receptor gamma (Homo sapiens), P62508 (parent)
# chain: MDSVELCLPESFSLHYEEELLCRMSNKDRHIDSSCSSFIKTEPSSPASLTDSVNHHSPGGSSDASGSYSSTMNGHQNGLDSPPLYPSAPILGGSGPVRKLYDDCSSTIVEDPQTKCEYMLNSMPKRLCLVCGDIASGYHYGVASCEACKAFFKRTIQGNIEYSCPATNECEITKRRRKSCQACRFMKCLKVGMLKEGVRLDRVRGGRQKYKRRIDAENSPYLNPQLVQPAKKPYNKIVSHLLVAEPEKIYAMPDPTVPDSDIKALTTLCDLADRELVVIIGWAKHIPGFSTLSLADQMSLLQSAWMEILILGVVYRSLSFEDELVYADDYIMDEDQSKLAGLLDLNNAILQLVKKYKSMKLEKEEFVTLKAIALANSDSMHIEDVEAVQKLQDVLHEALQDYEAGQHMEDPRRAGKMLMTLPLLRQTSTKAVQHFYNIKLEGKVPMHKLFLEMLEAKV
# partner: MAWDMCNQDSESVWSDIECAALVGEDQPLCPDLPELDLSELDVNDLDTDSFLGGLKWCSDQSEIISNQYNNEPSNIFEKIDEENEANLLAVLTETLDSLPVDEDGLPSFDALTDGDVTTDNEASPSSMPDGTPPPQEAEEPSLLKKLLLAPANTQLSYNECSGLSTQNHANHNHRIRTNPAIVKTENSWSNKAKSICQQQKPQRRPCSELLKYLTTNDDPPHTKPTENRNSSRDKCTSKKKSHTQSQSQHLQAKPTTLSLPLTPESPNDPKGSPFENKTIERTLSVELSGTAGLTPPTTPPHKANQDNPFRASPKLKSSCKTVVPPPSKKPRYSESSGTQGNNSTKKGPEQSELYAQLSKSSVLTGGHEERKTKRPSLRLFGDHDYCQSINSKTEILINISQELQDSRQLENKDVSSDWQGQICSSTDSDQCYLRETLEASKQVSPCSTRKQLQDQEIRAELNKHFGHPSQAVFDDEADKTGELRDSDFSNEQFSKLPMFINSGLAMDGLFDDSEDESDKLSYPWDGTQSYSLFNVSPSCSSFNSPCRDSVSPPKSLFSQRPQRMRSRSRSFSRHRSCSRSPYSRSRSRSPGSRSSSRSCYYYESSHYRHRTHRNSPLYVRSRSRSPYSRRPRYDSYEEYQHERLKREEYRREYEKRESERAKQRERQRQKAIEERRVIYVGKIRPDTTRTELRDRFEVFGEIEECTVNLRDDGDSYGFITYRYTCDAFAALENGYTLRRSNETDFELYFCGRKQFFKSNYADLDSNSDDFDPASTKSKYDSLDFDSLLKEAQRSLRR
# B2: Steroid hormone receptor ERR1 (Homo sapiens), P11474 (parent)
# chain: MSSQVVGIEPLYIKAEPASPDSPKGSSETETEPPVALAPGPAPTRCLPGHKEEEDGEGAGPGEQGGGKLVLSSLPKRLCLVCGDVASGYHYGVASCEACKAFFKRTIQGSIEYSCPASNECEITKRRRKACQACRFTKCLRVGMLKEGVRLDRVRGGRQKYKRRPEVDPLPFPGPFPAGPLAVAGGPRKTAAPVNALVSHLLVVEPEKLYAMPDPAGPDGHLPAVATLCDLFDREIVVTISWAKSIPGFSSLSLSDQMSVLQSVWMEVLVLGVAQRSLPLQDELAFAEDLVLDEEGARAAGLGELGAALLQLVRRLQALRLEREEYVLLKALALANSDSVHIEDAEAVEQLREALHEALLEYEAGRAGPGGGAERRRAGRLLLTLPLLRQTAGKVLAHFYGVKLEGKVPMHKLFLEMLEAMMD
# B3: Steroid hormone receptor ERR1 (Homo sapiens), P11474 (parent)
# chain: B2 chain
# partner: B1 partner
# Variants of: B1
# Conditions: with prgc1_human PPARGC1A
row,effect of a mutation on the interaction,Variant
1,with no effect,MDSVELCLPESFSLHYEEELLCRMSNKDRHIDSSCSSFIRTEPSSPASLTDSVNHHSPGGSSDASGSYSSTMNGHQNGLDSPPLYPSAPILGGSGPVRKLYDDCSSTIVEDPQTKCEYMLNSMPKRLCLVCGDIASGYHYGVASCEACKAFFKRTIQGNIEYSCPATNECEITKRRRKSCQACRFMKCLKVGMLKEGVRLDRVRGGRQKYKRRIDAENSPYLNPQLVQPAKKPYNKIVSHLLVAEPEKIYAMPDPTVPDSDIKALTTLCDLADRELVVIIGWAKHIPGFSTLSLADQMSLLQSAWMEILILGVVYRSLSFEDELVYADDYIMDEDQSKLAGLLDLNNAILQLVKKYKSMKLEKEEFVTLKAIALANSDSMHIEDVEAVQKLQDVLHEALQDYEAGQHMEDPRRAGKMLMTLPLLRQTSTKAVQHFYNIKLEGKVPMHKLFLEMLEAKV [K40R]

# Variants of: B2
# Conditions: with sumo3_human SUMO3, P55854
# Sequence of sumo3_human SUMO3, P55854 (P55854 whole entry): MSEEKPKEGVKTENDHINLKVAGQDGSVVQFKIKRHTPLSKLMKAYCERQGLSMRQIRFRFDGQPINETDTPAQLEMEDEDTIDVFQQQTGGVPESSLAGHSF
row,effect of a mutation on the interaction,Variant
1,with no effect,MSSQVVGIEPLYIRAEPASPDSPKGSSETETEPPVALAPGPAPTRCLPGHKEEEDGEGAGPGEQGGGKLVLSSLPKRLCLVCGDVASGYHYGVASCEACKAFFKRTIQGSIEYSCPASNECEITKRRRKACQACRFTKCLRVGMLKEGVRLDRVRGGRQKYKRRPEVDPLPFPGPFPAGPLAVAGGPRKTAAPVNALVSHLLVVEPEKLYAMPDPAGPDGHLPAVATLCDLFDREIVVTISWAKSIPGFSSLSLSDQMSVLQSVWMEVLVLGVAQRSLPLQDELAFAEDLVLDEEGARAAGLGELGAALLQLVRRLQALRLEREEYVLLKALALANSDSVHIEDAEAVEQLREALHEALLEYEAGRAGPGGGAERRRAGRLLLTLPLLRQTAGKVLAHFYGVKLEGKVPMHKLFLEMLEAMMD [K14R]

# Variants of: B3
# Conditions: with prgc1_human PPARGC1A
row,effect of a mutation on the interaction,Variant
1,with no effect,MSSQVVGIEPLYIRAEPASPDSPKGSSETETEPPVALAPGPAPTRCLPGHKEEEDGEGAGPGEQGGGKLVLSSLPKRLCLVCGDVASGYHYGVASCEACKAFFKRTIQGSIEYSCPASNECEITKRRRKACQACRFTKCLRVGMLKEGVRLDRVRGGRQKYKRRPEVDPLPFPGPFPAGPLAVAGGPRKTAAPVNALVSHLLVVEPEKLYAMPDPAGPDGHLPAVATLCDLFDREIVVTISWAKSIPGFSSLSLSDQMSVLQSVWMEVLVLGVAQRSLPLQDELAFAEDLVLDEEGARAAGLGELGAALLQLVRRLQALRLEREEYVLLKALALANSDSVHIEDAEAVEQLREALHEALLEYEAGRAGPGGGAERRRAGRLLLTLPLLRQTAGKVLAHFYGVKLEGKVPMHKLFLEMLEAMMD [K14R]
